Data: paper PMC6370476

Molecular target: SpyTag-γPFD-Cys (not stated | Methanocaldococcus jannaschii)
Assay: leaching of fluorescent protein from the hydrogel, fluorescence of the buffer

SpyCatcher-mCerulean3
percent leached from the hydrogel after two weeks: 35%
